We go through eleven molecules from patent US20240287172A1 (SCIRHOM, published 2024).

Residue numbers refer to the chain shown, from its start.

In one assay the target is T1, miR2-FL-WT-FLAG (mouse, UniProt Q80WQ6 1-827).
T1 construct: on MEF-DKO cells
T1 sequence: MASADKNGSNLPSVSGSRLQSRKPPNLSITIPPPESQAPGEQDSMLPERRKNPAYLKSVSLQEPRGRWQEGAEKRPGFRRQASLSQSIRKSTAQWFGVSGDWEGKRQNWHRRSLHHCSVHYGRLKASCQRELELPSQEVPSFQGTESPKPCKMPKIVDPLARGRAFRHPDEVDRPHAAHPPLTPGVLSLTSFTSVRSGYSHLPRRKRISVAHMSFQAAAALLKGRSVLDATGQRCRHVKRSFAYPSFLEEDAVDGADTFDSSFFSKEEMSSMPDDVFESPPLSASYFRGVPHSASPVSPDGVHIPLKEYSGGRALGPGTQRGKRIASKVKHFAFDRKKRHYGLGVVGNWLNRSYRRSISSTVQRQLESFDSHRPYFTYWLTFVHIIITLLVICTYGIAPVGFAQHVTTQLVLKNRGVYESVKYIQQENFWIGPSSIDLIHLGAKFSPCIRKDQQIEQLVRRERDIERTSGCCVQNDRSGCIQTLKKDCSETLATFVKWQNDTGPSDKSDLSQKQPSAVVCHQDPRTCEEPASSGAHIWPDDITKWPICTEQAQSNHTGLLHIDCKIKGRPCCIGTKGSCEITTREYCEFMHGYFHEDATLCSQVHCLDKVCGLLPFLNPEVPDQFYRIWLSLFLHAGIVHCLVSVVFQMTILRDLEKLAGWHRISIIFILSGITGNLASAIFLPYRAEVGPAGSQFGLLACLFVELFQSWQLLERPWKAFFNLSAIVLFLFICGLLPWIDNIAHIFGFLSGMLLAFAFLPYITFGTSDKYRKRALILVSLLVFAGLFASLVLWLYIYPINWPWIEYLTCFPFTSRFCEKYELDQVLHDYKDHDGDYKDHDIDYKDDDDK
In words: FACS, MEF-DKO-miR2-FL-WT-FLAG cells. On the procedure:
In brief, immortalized MEF-DKO-EV control cells, MEF-DKO-hiR2-FL-WT-FLAG cells and MEF-DKO-miR2-FL-WT-FLAG cells were harvested with 10 mM EDTA in PBS, washed and resuspended in FACS buffer (PBS, 3% FBS, 0.05% sodium azide), and seeded in Nunc U-bottom 96-well plates (Thermo Fisher Scientific, USA) at approximately 3×10⁵ cells per well. To pellet cells and remove supernatants, the plates were centrifuged at 1,500 rpm and 4° C. for 3 minutes. For primary staining, cells were resuspended in 100 μl per well of either FACS buffer alone (controls), mouse monoclonal anti-FLAG IgG (Sigma-Aldrich, USA) at 3 μg/ml FACS buffer or the antibodies of the invention also at 3 μg/ml FACS buffer and incubated on ice for 1 hour. Afterwards, plates were centrifuged at 1,500 rpm and 4° C. for 3 minutes and washed twice with 200 μl per well of FACS buffer. For secondary staining, cells were spun down and resuspended in 100 μl per well of PE-conjugated goat anti-mouse IgG F(ab′)2 detection fragment (Dianova, Germany) diluted 1:100 in FACS buffer. Protected from light, the cell suspensions were incubated on ice for 1 hour. Plates were then centrifuged at 1,500 rpm and 4° C. for 3 minutes and washed three times with 200 μl per well of FACS buffer. Finally, cells were resuspended in 150 μl per well of FACS buffer and analyzed using a BD Accuri™ C6 Plus flow cytometer (Becton Dickinson, Germany).
A general note: A flow cytometer gives signals particle by particle.

In assay [1] the target is T2, dog iRhom2 full length wild type, T7-tagged (dog, UniProt Q00M95 1-827).
T2 construct: whole, on cells; on MEF-DKO cells; also called Dog-iR2-FL-WT-T7
T2 sequence: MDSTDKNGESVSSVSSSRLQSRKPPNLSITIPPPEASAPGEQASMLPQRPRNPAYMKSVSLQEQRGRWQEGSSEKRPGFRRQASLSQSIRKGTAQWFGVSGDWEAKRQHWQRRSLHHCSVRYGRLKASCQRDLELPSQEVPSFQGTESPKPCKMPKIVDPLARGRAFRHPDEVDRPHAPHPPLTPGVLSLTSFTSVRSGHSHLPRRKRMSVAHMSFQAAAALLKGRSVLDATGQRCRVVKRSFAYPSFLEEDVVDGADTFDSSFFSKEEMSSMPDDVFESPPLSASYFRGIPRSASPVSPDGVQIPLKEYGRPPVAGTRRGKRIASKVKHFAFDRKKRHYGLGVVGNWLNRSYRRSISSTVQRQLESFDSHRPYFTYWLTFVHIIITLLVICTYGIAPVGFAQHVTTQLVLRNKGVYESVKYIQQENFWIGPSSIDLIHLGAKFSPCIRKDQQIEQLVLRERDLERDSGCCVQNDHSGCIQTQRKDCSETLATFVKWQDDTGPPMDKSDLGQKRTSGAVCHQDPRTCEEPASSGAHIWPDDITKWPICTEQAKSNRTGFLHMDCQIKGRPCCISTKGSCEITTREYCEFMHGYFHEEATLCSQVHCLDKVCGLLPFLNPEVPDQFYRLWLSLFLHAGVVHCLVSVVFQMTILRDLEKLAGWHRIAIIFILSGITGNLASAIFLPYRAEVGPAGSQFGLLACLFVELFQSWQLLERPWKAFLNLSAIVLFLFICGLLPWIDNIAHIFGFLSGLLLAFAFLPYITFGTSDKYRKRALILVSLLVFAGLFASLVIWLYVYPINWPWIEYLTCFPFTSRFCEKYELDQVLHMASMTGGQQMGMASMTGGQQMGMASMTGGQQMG
The assay can be described thus: FACS, MEF-DKO cells; via representative antibody 16. How it is done:
In brief, immortalized MEF-DKO-EV control cells, MEF-DKO-rhesus-iR2-FL-WT-T7 cells, MEF-DKO-cyno-iR2-FL-WT-T7 cells, MEF-DKO-dog-iR2-FL-WT-T7 cells and MEF-DKO-rabbit-iR2-FL-WT-T7 cells, as well as their respective iRhom1 counterparts, were harvested with 10 mM EDTA in PBS, washed and resuspended in FACS buffer (PBS, 3% FBS, 0.05% sodium azide), and seeded in Nunc U-bottom 96-well plates (Thermo Fisher Scientific, USA) at approximately 3×10⁵ cells per well. To pellet cells and remove supernatants, the plates were centrifuged at 1,500 rpm and 4° C. for 3 minutes. For primary staining, cells were resuspended in 100 μl per well of either FACS buffer alone (controls), mouse monoclonal anti-T7 IgG (Merck Millipore, USA) at 3 μg/ml FACS buffer or the antibodies of the invention also at 3 μg/ml FACS buffer and incubated on ice for 1 hour.
Afterwards, plates were centrifuged at 1,500 rpm and 4° C. for 3 minutes and washed twice with 200 μl per well of FACS buffer. For secondary staining, cells were spun down and resuspended in 100 μl per well of PE-conjugated goat anti-mouse IgG F(ab′)2 detection fragment (Dianova, Germany) diluted 1:100 in FACS buffer. Protected from light, the cell suspensions were incubated on ice for 1 hour. Plates were then centrifuged at 1,500 rpm and 4° C. for 3 minutes and washed three times with 200 μl per well of FACS buffer. Finally, cells were resuspended in 150 μl per well of FACS buffer and analyzed using a BD Accuri™ C6 Plus flow cytometer (Becton Dickinson, Germany).

B1: antibody 5 (antibody, V domains shown)
VH: QVTLKESGPGILQPSQTLSLTCSFSGFSLSTFGMGVGWIRQPSGKGLEWLAHIWWDDEKYYNSALKSRLTISKATSKNQAFLKIANVDTADTATYYCARISNYGSNYWYFNVWGTGTTVTVSS
VL: QVVLTQSPALMSASPGEKVTMTCSAGSSVSCMYWYQQKPGSSPRVLIYDTSNLASGVPARFTGSGSGTSYSLTISRMEAEDAASYYCQQWNSYPLTFGAGTKLELK
notes: mouse IgG, kappa light chain; also called clone #5; purified antibody 5
For the molecule B1, the binding result is “no binding (tested: 3 µg/ml)” with miR2-FL-WT-FLAG and “binds” in assay [1].

B2: antibody 57 (antibody, V domains shown)
VH: B1 VH with E58D, S63P, A74D, A80I, T92S, Y95F, S101E, N111D
VL: B1 VL with V2I, L10I, G26S, C31Y, A59V, T62S, I74V, S84T
notes: mouse IgG, kappa light chain; also called clone #57
For the molecule B2, the figures for the binding result (with miR2-FL-WT-FLAG; in assay [1]) were “no binding (tested: 3 µg/ml)” and “binds”, respectively.

B3: antibody 43 (antibody, V domains shown)
VH: B1 VH with T3A, P42S, H52N, E58D, S63P, A74D, T75A, S101G, N111D
VL: QIVLTQSPAIMSASPGERVTMTCSANSRISYMYWYQQKPGSSPRLLIYDTSNLASGVPVRFSGSGSGTSYSLTISRMEAEDAATYNCQQWSSYPLTFGAGTKLELK
notes: mouse IgG, kappa light chain; also called clone #43; purified antibody 43
B3: the results for the binding result (in the assay with miR2-FL-WT-FLAG; in assay [1]) were “no binding (tested: 3 µg/ml)” and “binds”, respectively.

B4: antibody 42 (antibody, V domains shown)
VH: B1 VH with F24L, M34R, S63P, A74D, A80V, K83R, S101Q, N111D
VL: B3 VL with Q1L, R18K, S24G, N26T, Y33F, L45V, M77V, A82V, N86Y, S91N
notes: mouse IgG, kappa light chain; also called clone #42; purified antibody 42
Turning to B4, the binding result in the assay with miR2-FL-WT-FLAG is “no binding (tested: 3 µg/ml)”; in assay [1], “binds”.

B5: antibody 44 (antibody, V domains shown)
VH: B1 VH with G44E, E58D, S63P, A74D, A80I, A85T, D91E, A98S, S101G, N111D
VL: QIVLTQSPAVMSASPGEKVTMTCTASSSVYYMYWYQQTPGSSPRLLIYDTSNLASGVPVRFSGSGSGTSYSLTISRMEAEDAATYYCQQWNTYPLTFGAGTKLELK
notes: mouse IgG, kappa light chain; also called clone #44; purified antibody 44
B5: the binding result with miR2-FL-WT-FLAG is “no binding (tested: 3 µg/ml)”; in assay [1], “binds”.

B6: antibody 22 (antibody, V domains shown)
VH: B1 VH with A80V
VL: B1 VL with C31Y, S84T
notes: mouse IgG, kappa light chain; also called clone #22; purified antibody 22
With B6, the binding result with miR2-FL-WT-FLAG is “no binding (tested: 3 µg/ml)”; in assay [1], “binds”.

B7: antibody 49 (antibody, V domains shown)
VH: QVTLKESGPGILQPSQTLSLTCSFSGFSLSTFGMGVGWIRQPSGKGLEWLAHIWWDDDKYYNPALQSRLTVSKDTAKNQVFLKIANVDTADTAIYYCARVGNYGSNYWYFAVWGTGTTVTVSS
VL: B5 VL with V10I, T24S, Y30S, T38K, T92S
notes: mouse IgG, kappa light chain; also called clone #49
As to B7, the results for the binding result (with miR2-FL-WT-FLAG; in assay [1]) were “no binding (tested: 3 µg/ml)” and “binds”, respectively.

B8: antibody 46 (antibody, V domains shown)
VH: QVTLKESGPGILQPSQTLSLTCSFSGFSLSTFGMGVGWIRQPSGKGLEWLAHIWWDDDNYYNQALKSRLTISKDNTKNQVFLNIANVDTADTATYYCARIRSYDYDVRYAMDYWGQGTSVTVSS
VL: DIKMTQSPSSMYASLRERVTITCKASQDINSYLSWFQQKPGKSPKTLIYRANRLVDGVPSRFSGSGSGQDYSLTISSLEYEDLGIYYCQQYYEFPLTFGAGTRLELK
notes: mouse IgG, kappa light chain; also called clone #46
With B8, the binding result with miR2-FL-WT-FLAG is listed as “no binding (tested: 3 µg/ml)”; in assay [1], “binds”.

B9: antibody 34 (antibody, V domains shown)
VH: QVTLKESGPGILQPSQTLSLTCSFSGFSLSTFSLGVGWIRQSSGKGLEWLAHIWWDDEKYYNPALKSRLTISKDTSKNQVFLKIANVDAADTATYYCARAYYSKSYYALDYWGQGTSVTVSS
VL: DIQMTQSPSSLSASLGERVSLTCRASQEISGYLSWLQQKPDGTIKRLIYAASTLDSGVPKRFSGSRSGSDYSLAISSLESEDFADYYCLQYANFPFTFGSGTKLEIK
notes: mouse IgG, kappa light chain; also called clone #34; purified antibody 34
Regarding B9, the results for the binding result (in the assay with miR2-FL-WT-FLAG; in assay [1]) were “no binding (tested: 3 µg/ml)” and “binds”, respectively.

B10: antibody 16 (antibody, V domains shown)
VH: QVTLKESGPGILQPSQTLSLTCSFSGFSLSTFALGVGWIRQPSGRGLEWLAHIWWDDDKYYNPALKSRLTISKDTSKNHVFLKIANVDTADTATYYCARITTYYYGMDYWGQGTSVTVSS
VL: DIVLSQSPATLSVTPGDSVSLFCRASQSIGNHLHWYQQESHASPRLLIKYASQSISGIPSRFSGSGSGTDFTLSINSVETEDFGMYFCQQSYNWPLTFGAGTKLELK
notes: mouse IgG, kappa light chain; also called clone #16; purified antibody 16
On to B10, for which the binding result in the assay with miR2-FL-WT-FLAG is reported as “no binding (tested: 3 µg/ml)”.

B11: antibody 3 (antibody, V domains shown)
VH: QVTLKESGPGILQPSQTLSLTCSFSGFSLTTFAMGIGWVRQPSGKGLEWLAHIWWDGEKYNNPVLKSRLTISKDTSKNQVFLRIANVDTPDTATYYCARISSIYYIIDNWGQGTSVTVSS
VL: B10 VL with S5T, D17H, F22S, G30S, H32N, Q38K, E39K, A42E, A51V
notes: mouse IgG, kappa light chain; also called clone #3; purified antibody 3
Consider B11, for which the binding result in assay [1] is reported as “binds”.
